Data as given in patent US20170218066A1 (SORRENTO THERAPEUTICS, published 2017).
Positions count from the first letter of the chain named. Values belong to the binder of their own block, whether it stands above or below them.

Target: T1, human PD-L1 (human, UniProt Q9NZQ7 19-238, limits assumed)
T1 construct: also called Programmed death ligand 1; B7-H1
Test: Biacore (SPR)

T1 sequence (Q9NZQ7 19-238 limits assumed): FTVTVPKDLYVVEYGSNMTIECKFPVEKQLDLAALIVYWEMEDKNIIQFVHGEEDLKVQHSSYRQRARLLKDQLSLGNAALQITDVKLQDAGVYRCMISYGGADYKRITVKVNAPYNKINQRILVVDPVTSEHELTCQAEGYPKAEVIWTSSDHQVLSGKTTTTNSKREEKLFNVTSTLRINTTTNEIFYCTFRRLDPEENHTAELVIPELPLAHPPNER

Ka: 5.48e+08 M⁻¹
Kd: 1.82 nM
koff: 0.00287 s⁻¹
kon: 1.57e+06 M⁻¹ s⁻¹
B1: H6B1L-EV (antibody, V domains shown)
VH: QMQLVQSGAEVKKPGSSVKVSCKASGGTFSSYAYSWVRQAPGQGLEWMGGIIPSFGTANYAQKFQGRVTITADESTSTAYMELSSLRSEDTAVYYCARGPIVATITPLDYWGQGTLVTVSS
VL: SYVLMQPPSVSVAPGKTATIACGGENIGRKTVHWYQQKPGQAPVLVIYYDSDRPSGIPERFSGSNSGNTATLTISRVEAGDEADYYCLVWDSSSDHRIFGGGTKLTVL
notes: Fully human antibody of an IgG class, light chain variant of H6B1L

Ka: 5.4e+08 M⁻¹
Kd: 1.85 nM
koff: 0.0028 s⁻¹
kon: 1.51e+06 M⁻¹ s⁻¹
B2: H6B1L (antibody, V domains shown)
VH: B1 VH
VL: B1 VL with V3E
notes: Fully human antibody of an IgG class; also called parent antibody H6B1L; wild type antibody H6B1L

Ka: 6.44e+08 M⁻¹
Kd: 1.55 nM
koff: 0.00214 s⁻¹
kon: 1.38e+06 M⁻¹ s⁻¹
B3: H6B1L-EM (antibody, V domains shown)
VH: B1 VH
VL: B1 VL with M5T
notes: as for B1
